How the values were obtained:
Test in all cases: EMSA
PABPC1 WT = PABPC1 WT (Homo sapiens, UniProt P11940 1-636)
PABPC1 K512R = PABPC1 K512R (Homo sapiens, UniProt P11940 1-636, K512R)
TIA1 WT = biological target: T1, TIA1 WT (Homo sapiens, UniProt P31483 1-386)
T1 sequence: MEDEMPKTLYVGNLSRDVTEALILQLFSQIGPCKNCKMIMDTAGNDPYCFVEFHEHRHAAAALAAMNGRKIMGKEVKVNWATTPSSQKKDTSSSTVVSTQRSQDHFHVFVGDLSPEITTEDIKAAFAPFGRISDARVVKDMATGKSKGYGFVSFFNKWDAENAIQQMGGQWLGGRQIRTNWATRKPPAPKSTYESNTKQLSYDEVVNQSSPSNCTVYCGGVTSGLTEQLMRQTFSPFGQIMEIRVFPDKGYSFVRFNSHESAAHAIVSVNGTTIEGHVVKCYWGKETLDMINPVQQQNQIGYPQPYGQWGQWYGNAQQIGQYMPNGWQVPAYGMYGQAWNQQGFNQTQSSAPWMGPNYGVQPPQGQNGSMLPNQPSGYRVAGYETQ

Sequence of PABPC1 K512R (P11940 whole entry K512R): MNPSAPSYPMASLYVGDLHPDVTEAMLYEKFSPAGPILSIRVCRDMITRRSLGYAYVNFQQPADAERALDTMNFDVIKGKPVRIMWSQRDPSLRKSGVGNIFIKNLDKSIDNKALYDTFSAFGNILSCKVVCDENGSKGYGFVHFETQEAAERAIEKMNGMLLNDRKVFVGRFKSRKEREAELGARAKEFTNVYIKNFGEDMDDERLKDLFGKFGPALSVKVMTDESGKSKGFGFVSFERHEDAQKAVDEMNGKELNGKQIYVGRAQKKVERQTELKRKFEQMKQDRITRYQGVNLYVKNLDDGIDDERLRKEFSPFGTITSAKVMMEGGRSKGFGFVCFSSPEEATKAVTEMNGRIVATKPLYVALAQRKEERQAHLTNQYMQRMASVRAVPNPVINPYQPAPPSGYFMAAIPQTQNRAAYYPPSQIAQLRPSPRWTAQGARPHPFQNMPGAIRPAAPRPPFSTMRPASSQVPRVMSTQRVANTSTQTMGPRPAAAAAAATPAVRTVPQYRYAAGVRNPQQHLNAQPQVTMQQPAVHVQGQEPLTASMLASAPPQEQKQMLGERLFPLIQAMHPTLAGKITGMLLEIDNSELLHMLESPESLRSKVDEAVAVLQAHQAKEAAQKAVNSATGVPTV
Sequence of PABPC1 WT (P11940 whole entry): as the sequence (P11940 whole entry K512R) above, with R512K counted along it

B1: Bio-A90 (ssRNA)
RNA: GCCUUUCAUCUCUAACUGCGAAAAAAAAAAAAAAAAAAAAAAAAAAAAAAAAAAAAAAAAAAAAAAAAAAAAAAAAAAAAAAAAAAAAAAAAAAAAAAAAAAAAAAAAAA
binding result (PABPC1 WT): binds | binding result (PABPC1 K512R): binds

CUUUUUUUUUUUUUUUUUUUUUUUUG (ssRNA) [Bio-polyU]
binding result (TIA1 WT): binds

Reference: paper PMC12331966
